Common to all, as to test: ITC; PRPF40A construct (WW12, N-ext-WW12 or its mutant) in the cell, GB1-SF1 or GB1-SF3A1 construct in the syringe (as shown in Supplementary Figures 16 and 21); 25 °C, 20 mM sodium phosphate pH 6.5, 100 mM NaCl; one-site binding model; at least duplicates; affinities apparent
Settings in all cases: both partners purified
(In ITC the heat of successive injections is recorded.)

Experiment [1] addresses T1, GB1-SF1 Pro BCD (residues 468-639) (UniProt Q15637 468-639).
T1 construct: splicing factor 1 (SF1), residues 468-639; His6-GB1-TEV site cassette of the pET24 vector, not cleaved; source: E. coli BL21(DE3), purified (Ni-NTA, SEC); not shown: GB1, N-terminal, kept
T1 sequence (looked up): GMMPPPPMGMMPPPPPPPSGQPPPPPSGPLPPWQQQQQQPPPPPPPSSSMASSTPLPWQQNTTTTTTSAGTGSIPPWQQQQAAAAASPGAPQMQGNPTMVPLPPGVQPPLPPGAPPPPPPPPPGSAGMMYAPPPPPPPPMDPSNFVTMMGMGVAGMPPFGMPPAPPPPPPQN

Experiment [2] addresses T2, GB1-SF1 Pro ABCD (residues 410-639) (UniProt Q15637 410-639).
T2 construct: splicing factor 1 (SF1), residues 410-639, the complete proline-rich C-terminal region; His6-GB1-TEV site cassette of the pET24 vector, not cleaved; source: E. coli BL21(DE3), purified (Ni-NTA, SEC); not shown: GB1, N-terminal, kept
T2 sequence (looked up): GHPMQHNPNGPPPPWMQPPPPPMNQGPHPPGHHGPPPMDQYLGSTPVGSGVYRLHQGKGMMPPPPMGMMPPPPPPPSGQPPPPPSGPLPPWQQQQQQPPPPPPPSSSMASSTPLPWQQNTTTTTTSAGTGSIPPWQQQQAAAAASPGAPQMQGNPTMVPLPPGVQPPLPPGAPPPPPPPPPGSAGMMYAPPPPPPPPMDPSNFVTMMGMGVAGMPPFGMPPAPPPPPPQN

For experiment [3], the target named is T3, GB1-SF1 Pro CD (residues 539-639) (UniProt Q15637 539-639).
T3 construct: splicing factor 1 (SF1), residues 539-639; His6-GB1-TEV site cassette of the pET24 vector, not cleaved; source: E. coli BL21(DE3), purified (Ni-NTA, SEC); not shown: GB1, N-terminal, kept
T3 sequence (looked up): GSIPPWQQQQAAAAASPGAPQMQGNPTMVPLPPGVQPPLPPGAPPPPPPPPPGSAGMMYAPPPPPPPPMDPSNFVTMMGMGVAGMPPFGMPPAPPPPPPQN

The target of experiment [4] is T4, GB1-SF3A1 C-ter Pro (residues 552-683) (UniProt Q15459 552-683).
T4 construct: His6-GB1-TEV site cassette of the pET24 vector, not cleaved; source: E. coli BL21(DE3), purified (Ni-NTA, SEC); not shown: GB1, N-terminal, kept
T4 sequence (looked up): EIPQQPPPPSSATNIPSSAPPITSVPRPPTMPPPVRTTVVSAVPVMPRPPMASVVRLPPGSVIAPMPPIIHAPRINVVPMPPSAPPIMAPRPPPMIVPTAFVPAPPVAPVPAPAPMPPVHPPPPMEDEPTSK

Experiment [5] concerns the target T5, GB1-SF1 Pro BC (residues 468-594) (UniProt Q15637 468-594).
T5 construct: splicing factor 1 (SF1), residues 468-594; His6-GB1-TEV site cassette of the pET24 vector, not cleaved; also called SF1 BC; source: E. coli BL21(DE3), purified (Ni-NTA, SEC); not shown: GB1, N-terminal, kept
T5 sequence (looked up): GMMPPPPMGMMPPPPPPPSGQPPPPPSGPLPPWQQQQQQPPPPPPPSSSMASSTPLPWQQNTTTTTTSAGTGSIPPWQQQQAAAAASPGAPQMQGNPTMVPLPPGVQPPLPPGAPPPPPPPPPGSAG

B1: PRPF40A WW12 (tandem WW domains, residues 141-236) (domain or fragment, human, UniProt O75400 141-236, looked up)
chain: GAKSMWTEHKSPDGRTYYYNTETKQSTWEKPDDLKTPAEQLLSKCPWKEYKSDSGKPYYYNSQTKESRWAKPKELEDLEGYQNTIVAGSLITKSNL
notes: A few vector residues probably remain at the N-terminus after TEV cleavage (pETM11, NcoI site); 15N-labelled in the NMR experiments; also called PRPF40A WW tandem; WW12 wt; source: E. coli BL21(DE3), purified (Ni-NTA, TEV digestion, reverse Ni-NTA, SEC); not shown: His6, N-terminal, cleaved
In the case of B1, the Kd amounted to 3.65 ± 0.71 µM in experiment [1]; 4.91 ± 0.51 µM in experiment [2]; 3.8 ± 0.69 µM in experiment [3]; 19.3 ± 4.5 µM in experiment [4]; 6.83 ± 2.33 µM in experiment [5].

The values above are taken from article PMC11079029, “Intramolecular autoinhibition regulates the selectivity of PRPF40A tandem WW domains for proline-rich motifs” (Nature Communications, 2024).
